Test results as given in paper PMC9482650, “Quantitative fragmentomics allow affinity mapping of interactomes” (Nature Communications, 2022).

Legend:
Assay in all cases: holdup assay
Design in all cases: key: below the threshold = too weak to quantify, mostly under pKd 3.1 to 4
CARD11, Q9BXL7 = biological target: T1, CARD11, Q9BXL7
T1 sequence (Q9BXL7 662-765, limits assumed, looked up): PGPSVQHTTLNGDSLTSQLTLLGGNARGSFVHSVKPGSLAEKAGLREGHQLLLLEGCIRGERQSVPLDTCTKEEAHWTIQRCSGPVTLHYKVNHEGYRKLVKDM

CASK, O14936 = biological target: CASK, O14936
CASK, O14936, sequence (O14936 487-570): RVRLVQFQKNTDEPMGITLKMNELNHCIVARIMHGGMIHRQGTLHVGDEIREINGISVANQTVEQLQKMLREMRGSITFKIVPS

DFNB31_1, Q9P202 = biological target: T2, DFNB31_1, Q9P202
T2 sequence (Q9P202 135-233, limits assumed, looked up): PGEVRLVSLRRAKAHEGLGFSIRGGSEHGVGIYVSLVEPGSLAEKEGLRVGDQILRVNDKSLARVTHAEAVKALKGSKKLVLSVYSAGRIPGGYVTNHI

DFNB31_3, Q9P202 = biological target: T3, DFNB31_3, Q9P202
T3 sequence (Q9P202 811-907, limits assumed, looked up): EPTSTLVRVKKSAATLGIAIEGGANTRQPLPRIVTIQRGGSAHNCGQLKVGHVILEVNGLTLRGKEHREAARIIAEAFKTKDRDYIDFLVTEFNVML

DLG1_1, Q12959 = biological target: DLG1_1, Q12959
DLG1_2, Q12959 = biological target: DLG1_2, Q12959
DLG3_3, Q92796 = biological target: T4, DLG3_3, Q92796
T4 sequence (Q92796 374-475, limits assumed, looked up): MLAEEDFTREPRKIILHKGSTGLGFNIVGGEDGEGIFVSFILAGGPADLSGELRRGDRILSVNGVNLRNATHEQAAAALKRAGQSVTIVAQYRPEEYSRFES

DLG4_3, P78352 = biological target: DLG4_3, P78352
DLG4_3, P78352, sequence (P78352 306-403): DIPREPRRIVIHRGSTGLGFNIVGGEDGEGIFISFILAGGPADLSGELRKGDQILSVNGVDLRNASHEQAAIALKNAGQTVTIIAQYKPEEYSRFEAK

DVL3, Q92997 = biological target: T5, DVL3, Q92997
T5 sequence (Q92997 244-331, limits assumed, looked up): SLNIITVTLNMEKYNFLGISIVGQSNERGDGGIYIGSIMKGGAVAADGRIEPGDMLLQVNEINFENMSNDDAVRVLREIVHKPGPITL

FRMPD3, Q5JV73 = biological target: FRMPD3, Q5JV73
FRMPD3, Q5JV73, sequence (Q5JV73 12-100): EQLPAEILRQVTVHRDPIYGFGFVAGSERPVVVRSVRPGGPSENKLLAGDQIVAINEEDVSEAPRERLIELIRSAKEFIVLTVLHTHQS

GRID2IP_2, A4D2P6 = biological target: GRID2IP_2, A4D2P6
GRID2IP_2, A4D2P6, sequence (A4D2P6 272-370): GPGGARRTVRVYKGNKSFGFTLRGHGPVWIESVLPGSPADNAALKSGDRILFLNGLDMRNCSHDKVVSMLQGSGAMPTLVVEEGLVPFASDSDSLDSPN

GRIP1_3, Q9Y3R0 = biological target: T6, GRIP1_3, Q9Y3R0
T6 sequence (Q9Y3R0 247-346, limits assumed, looked up): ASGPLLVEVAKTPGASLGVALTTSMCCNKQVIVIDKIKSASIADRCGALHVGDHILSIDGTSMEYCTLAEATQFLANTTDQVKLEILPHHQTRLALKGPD

GRIP1_7, Q9Y3R0 = biological target: T7, GRIP1_7, Q9Y3R0
T7 sequence (Q9Y3R0 999-1096, limits assumed, looked up): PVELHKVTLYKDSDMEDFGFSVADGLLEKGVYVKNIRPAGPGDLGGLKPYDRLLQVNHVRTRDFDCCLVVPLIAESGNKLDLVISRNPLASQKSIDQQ

Inadl_10, Q8NI35 = biological target: Inadl_10, Q8NI35
Inadl_10, Q8NI35, sequence (Q8NI35 1673-1763): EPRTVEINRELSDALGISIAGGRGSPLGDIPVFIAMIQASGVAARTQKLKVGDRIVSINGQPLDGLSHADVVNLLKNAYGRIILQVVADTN

Inadl_6, Q8NI35 = biological target: Inadl_6, Q8NI35
Inadl_6, Q8NI35, sequence (Q8NI35 1058-1167): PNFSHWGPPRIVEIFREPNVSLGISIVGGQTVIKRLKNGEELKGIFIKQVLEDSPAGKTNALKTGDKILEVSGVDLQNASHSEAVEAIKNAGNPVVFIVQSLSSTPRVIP

LNX2_3, Q8N448 = biological target: T8, LNX2_3, Q8N448
T8 sequence (Q8N448 463-564, limits assumed, looked up): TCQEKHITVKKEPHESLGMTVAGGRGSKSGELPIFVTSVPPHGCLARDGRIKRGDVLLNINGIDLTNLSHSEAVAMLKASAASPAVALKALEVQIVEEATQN

MAGI1_2, Q96QZ7 = biological target: MAGI1_2, Q96QZ7
MAGI1_2, Q96QZ7, sequence (Q96QZ7 456-580): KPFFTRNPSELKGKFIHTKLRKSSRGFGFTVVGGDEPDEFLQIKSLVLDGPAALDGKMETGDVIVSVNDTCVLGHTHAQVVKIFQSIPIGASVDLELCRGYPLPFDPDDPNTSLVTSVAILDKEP

MAGI2_3, Q86UL8 = biological target: MAGI2_3, Q86UL8
MAGI2_3, Q86UL8, sequence (Q86UL8 600-682): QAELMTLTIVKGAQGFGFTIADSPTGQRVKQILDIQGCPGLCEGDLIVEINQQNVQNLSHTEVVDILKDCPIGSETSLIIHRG

MAGI2_5, Q86UL8 = biological target: MAGI2_5, Q86UL8
MAGI2_5, Q86UL8, sequence (Q86UL8 915-1017): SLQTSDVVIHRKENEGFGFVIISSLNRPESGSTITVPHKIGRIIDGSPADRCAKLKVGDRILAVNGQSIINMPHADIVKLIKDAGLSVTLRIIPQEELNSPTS

MAST1, Q9Y2H9 = biological target: MAST1, Q9Y2H9
MAST1, Q9Y2H9, sequence (Q9Y2H9 962-1065): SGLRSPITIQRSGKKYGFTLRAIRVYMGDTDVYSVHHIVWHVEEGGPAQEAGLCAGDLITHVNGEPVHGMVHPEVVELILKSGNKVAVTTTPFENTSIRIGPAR

NHERF2_2, Q15599 = biological target: NHERF2_2, Q15599
NHERF2_2, Q15599, sequence (Q15599 142-238): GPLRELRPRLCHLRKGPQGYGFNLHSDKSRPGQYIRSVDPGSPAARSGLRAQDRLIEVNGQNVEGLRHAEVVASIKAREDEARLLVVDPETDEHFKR

PCLO, Q9Y6V0 = biological target: T9, PCLO, Q9Y6V0
T9 sequence (Q9Y6V0 4491-4600, limits assumed, looked up): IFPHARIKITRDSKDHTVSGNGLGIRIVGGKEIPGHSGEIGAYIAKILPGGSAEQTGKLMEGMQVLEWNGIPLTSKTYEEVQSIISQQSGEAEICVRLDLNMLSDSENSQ

PTPN3, P26045 = biological target: PTPN3, P26045
PTPN3, P26045, sequence (P26045 505-587): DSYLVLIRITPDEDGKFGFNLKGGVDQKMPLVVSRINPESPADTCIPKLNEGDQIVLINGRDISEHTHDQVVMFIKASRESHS

RHPN1, Q8TCX5 = biological target: T10, RHPN1, Q8TCX5
T10 sequence (Q8TCX5 508-602, limits assumed, looked up): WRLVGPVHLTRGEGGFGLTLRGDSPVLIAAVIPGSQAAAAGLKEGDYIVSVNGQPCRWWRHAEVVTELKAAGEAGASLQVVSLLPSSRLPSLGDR

SCRIB_3, Q14160 = biological target: SCRIB_3, Q14160
SCRIB_3, Q14160, sequence (Q14160 999-1103): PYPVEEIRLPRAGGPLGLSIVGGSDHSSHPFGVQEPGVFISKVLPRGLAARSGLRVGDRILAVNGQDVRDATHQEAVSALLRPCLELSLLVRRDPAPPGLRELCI

TIAM2, Q8IVF5 = biological target: T11, TIAM2, Q8IVF5
T11 sequence (Q8IVF5 885-986, limits assumed, looked up): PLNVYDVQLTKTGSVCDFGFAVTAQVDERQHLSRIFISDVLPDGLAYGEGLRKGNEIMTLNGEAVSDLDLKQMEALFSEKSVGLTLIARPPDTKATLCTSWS

TJP2_1, Q9UDY2 = biological target: TJP2_1, Q9UDY2
TJP2_1, Q9UDY2, sequence (Q9UDY2 24-128): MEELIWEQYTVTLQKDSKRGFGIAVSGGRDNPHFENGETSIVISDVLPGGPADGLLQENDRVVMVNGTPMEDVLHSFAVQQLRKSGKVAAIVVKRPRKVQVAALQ

[1] = plain residues with an end cap or a label only (N-terminal biotin on a linker: ttds)
[2] = plain residues with an end cap or a label only (N-terminal biotin on a linker: ado-ado)

## VNKVWDQSSV [CIT, O14578]
CARD11, Q9BXL7; [1]
  pKd: below the threshold
CASK, O14936; [1]
  pKd: below the threshold
DFNB31_1, Q9P202; [1]
  pKd: 3.52
DFNB31_3, Q9P202; [1]
  pKd: below the threshold
DLG1_1, Q12959; [1]
  pKd: below the threshold
DLG1_2, Q12959; [1]
  pKd: 3.48
DLG3_3, Q92796; [1]
  pKd: 3.7
DLG4_3, P78352; [1]
  pKd: 3.62
DVL3, Q92997; [1]
  pKd: below the threshold
FRMPD3, Q5JV73; [1]
  pKd: below the threshold
GRID2IP_2, A4D2P6; [1]
  pKd: 3.74
GRIP1_3, Q9Y3R0; [1]
  pKd: below the threshold
GRIP1_7, Q9Y3R0; [1]
  pKd: below the threshold
Inadl_10, Q8NI35; [1]
  pKd: below the threshold
Inadl_6, Q8NI35; [1]
  pKd: below the threshold
LNX2_3, Q8N448; [1]
  pKd: below the threshold
MAGI1_2, Q96QZ7; [1]
  pKd: below the threshold
MAGI2_3, Q86UL8; [1]
  pKd: below the threshold
MAGI2_5, Q86UL8; [1]
  pKd: 3.7
MAST1, Q9Y2H9; [1]
  pKd: 4.51
NHERF2_2, Q15599; [1]
  pKd: below the threshold
PCLO, Q9Y6V0; [1]
  pKd: below the threshold
PTPN3, P26045; [1]
  pKd: 3.78
RHPN1, Q8TCX5; [1]
  pKd: 3.82
SCRIB_3, Q14160; [1]
  pKd: below the threshold
TIAM2, Q8IVF5; [1]
  pKd: below the threshold
TJP2_1, Q9UDY2; [1]
  pKd: below the threshold

## LDSQIQETSI [MAP4, P27816]
CARD11, Q9BXL7; [1]
  pKd: below the threshold
CASK, O14936; [1]
  pKd: below the threshold
DFNB31_1, Q9P202; [1]
  pKd: 5.03
DFNB31_3, Q9P202; [1]
  pKd: below the threshold
DLG1_1, Q12959; [1]
  pKd: 3.64
DLG1_2, Q12959; [1]
  pKd: 4.37
DLG3_3, Q92796; [1]
  pKd: 3.78
DLG4_3, P78352; [1]
  pKd: 3.61
DVL3, Q92997; [1]
  pKd: below the threshold
FRMPD3, Q5JV73; [1]
  pKd: below the threshold
GRID2IP_2, A4D2P6; [1]
  pKd: 4.29
GRIP1_3, Q9Y3R0; [1]
  pKd: below the threshold
GRIP1_7, Q9Y3R0; [1]
  pKd: below the threshold
Inadl_10, Q8NI35; [1]
  pKd: below the threshold
Inadl_6, Q8NI35; [1]
  pKd: 4.13
LNX2_3, Q8N448; [1]
  pKd: below the threshold
MAGI1_2, Q96QZ7; [1]
  pKd: below the threshold
MAGI2_3, Q86UL8; [1]
  pKd: below the threshold
MAGI2_5, Q86UL8; [1]
  pKd: 3.5
MAST1, Q9Y2H9; [1]
  pKd: 4.56
NHERF2_2, Q15599; [1]
  pKd: 4.48
PCLO, Q9Y6V0; [1]
  pKd: below the threshold
PTPN3, P26045; [1]
  pKd: 4.92
RHPN1, Q8TCX5; [1]
  pKd: 4.94
SCRIB_3, Q14160; [1]
  pKd: 5.17
TIAM2, Q8IVF5; [1]
  pKd: below the threshold
TJP2_1, Q9UDY2; [1]
  pKd: below the threshold

## EDLTKNHDEL [RCN1, Q15293]
CARD11, Q9BXL7; [2]
  pKd: below the threshold
CASK, O14936; [2]
  pKd: below the threshold
DFNB31_1, Q9P202; [2]
  pKd: below the threshold
DFNB31_3, Q9P202; [2]
  pKd: below the threshold
DLG1_1, Q12959; [2]
  pKd: below the threshold
DLG1_2, Q12959; [2]
  pKd: below the threshold
DLG3_3, Q92796; [2]
  pKd: below the threshold
DLG4_3, P78352; [2]
  pKd: 4
DVL3, Q92997; [2]
  pKd: below the threshold
FRMPD3, Q5JV73; [2]
  pKd: below the threshold
GRID2IP_2, A4D2P6; [2]
  pKd: 3.48
GRIP1_3, Q9Y3R0; [2]
  pKd: below the threshold
GRIP1_7, Q9Y3R0; [2]
  pKd: below the threshold
Inadl_10, Q8NI35; [2]
  pKd: below the threshold
Inadl_6, Q8NI35; [2]
  pKd: below the threshold
LNX2_3, Q8N448; [2]
  pKd: 3.51
MAGI1_2, Q96QZ7; [2]
  pKd: below the threshold
MAGI2_3, Q86UL8; [2]
  pKd: below the threshold
MAGI2_5, Q86UL8; [2]
  pKd: below the threshold
MAST1, Q9Y2H9; [2]
  pKd: 3.91
NHERF2_2, Q15599; [2]
  pKd: 3.74
PCLO, Q9Y6V0; [2]
  pKd: below the threshold
PTPN3, P26045; [2]
  pKd: below the threshold
RHPN1, Q8TCX5; [2]
  pKd: 3.79
SCRIB_3, Q14160; [2]
  pKd: 3.57
TIAM2, Q8IVF5; [2]
  pKd: below the threshold
TJP2_1, Q9UDY2; [2]
  pKd: below the threshold

## PKRPFVESNV [TANC2, Q9HCD6]
CARD11, Q9BXL7; [1]
  pKd: below the threshold
CASK, O14936; [1]
  pKd: below the threshold
DFNB31_1, Q9P202; [1]
  pKd: below the threshold
DFNB31_3, Q9P202; [1]
  pKd: below the threshold
DLG1_1, Q12959; [1]
  pKd: 4.31
DLG1_2, Q12959; [1]
  pKd: 4.65
DLG3_3, Q92796; [1]
  pKd: 3.67
DLG4_3, P78352; [1]
  pKd: below the threshold
DVL3, Q92997; [1]
  pKd: below the threshold
FRMPD3, Q5JV73; [1]
  pKd: below the threshold
GRID2IP_2, A4D2P6; [1]
  pKd: below the threshold
GRIP1_3, Q9Y3R0; [1]
  pKd: below the threshold
GRIP1_7, Q9Y3R0; [1]
  pKd: below the threshold
Inadl_10, Q8NI35; [1]
  pKd: below the threshold
Inadl_6, Q8NI35; [1]
  pKd: below the threshold
LNX2_3, Q8N448; [1]
  pKd: below the threshold
MAGI1_2, Q96QZ7; [1]
  pKd: below the threshold
MAGI2_3, Q86UL8; [1]
  pKd: below the threshold
MAGI2_5, Q86UL8; [1]
  pKd: 3.7
MAST1, Q9Y2H9; [1]
  pKd: below the threshold
NHERF2_2, Q15599; [1]
  pKd: below the threshold
PCLO, Q9Y6V0; [1]
  pKd: below the threshold
PTPN3, P26045; [1]
  pKd: 4.34
RHPN1, Q8TCX5; [1]
  pKd: 4.09
SCRIB_3, Q14160; [1]
  pKd: 4.79
TIAM2, Q8IVF5; [1]
  pKd: below the threshold
TJP2_1, Q9UDY2; [1]
  pKd: below the threshold

## GFGEERESIL [KIDINS220, Q9ULH0]
CARD11, Q9BXL7; [2]
  pKd: below the threshold
CASK, O14936; [2]
  pKd: below the threshold
DFNB31_1, Q9P202; [2]
  pKd: below the threshold
DFNB31_3, Q9P202; [2]
  pKd: below the threshold
DLG1_1, Q12959; [2]
  pKd: below the threshold
DLG1_2, Q12959; [2]
  pKd: 3.88
DLG3_3, Q92796; [2]
  pKd: below the threshold
DLG4_3, P78352; [2]
  pKd: below the threshold
DVL3, Q92997; [2]
  pKd: below the threshold
FRMPD3, Q5JV73; [2]
  pKd: below the threshold
GRID2IP_2, A4D2P6; [2]
  pKd: 3.86
GRIP1_3, Q9Y3R0; [2]
  pKd: below the threshold
GRIP1_7, Q9Y3R0; [2]
  pKd: below the threshold
Inadl_10, Q8NI35; [2]
  pKd: below the threshold
Inadl_6, Q8NI35; [2]
  pKd: 4.1
LNX2_3, Q8N448; [2]
  pKd: below the threshold
MAGI1_2, Q96QZ7; [2]
  pKd: below the threshold
MAGI2_3, Q86UL8; [2]
  pKd: 3.48
MAGI2_5, Q86UL8; [2]
  pKd: 4.08
MAST1, Q9Y2H9; [2]
  pKd: 4.66
NHERF2_2, Q15599; [2]
  pKd: 4.67
PCLO, Q9Y6V0; [2]
  pKd: below the threshold
PTPN3, P26045; [2]
  pKd: 5.22
RHPN1, Q8TCX5; [2]
  pKd: 4.61
SCRIB_3, Q14160; [2]
  pKd: 4.56
TIAM2, Q8IVF5; [2]
  pKd: below the threshold
TJP2_1, Q9UDY2; [2]
  pKd: below the threshold
